This note sets out measurements from US20160347843A1 (UNIVERSITY OF MASSACHUSETTS, published 2016).

In assay [1] the target is T1, TRX-Exon14 (thioredoxin with 6-histidine tag fused upstream of the sFlt1-14-specific peptide) (human).
T1 construct: Bacterially expressed screening antigen coated on ELISA plates; not shown: N-terminal thioredoxin (TRX) with 6-histidine tag from pET32a(+)
T1 chain: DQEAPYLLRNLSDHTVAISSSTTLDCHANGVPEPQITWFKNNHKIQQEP
Briefly: ELISA of hybridoma cultures on coated TRX-Exon14. The protocol: (§1) To determine reactivity of unique antibodies with sFlt1-1 and sFlt1-14, ELISA was employed. As described above, TRX-Exon14 and GST-1C peptides were expressed and purified from bacteria. ELISA plates were coated with either GST-1C (FIG. 2A) or TRX-Exon14 (FIG. 2B), blocked with BSA and a series of dilutions of each hybridoma supernatant containing mAb was incubated on the coated plates. Bound antibody was detected with anti-mouse alkaline phosphatase secondary antibody and the interaction developed with PNPP. Plates were read using a Molecular Devices Emax plate reader and antibodies with the desired specificity and highest affinity were selected for final ELISA production. These included mouse mAbs EX14-1 to detect sFlt1-14 and 1C-KLH-18 to detect sFlt1. […] A human anti sFLT antibody with properties described above (under Quantitative Capture ELISA) was also used to minimize background in the ELISAs.
(§2) To determine reactivity of unique antibodies with sFlt1-1. sFlt1-14, TRX-Exon14 (SEQ ID NO. 40) and GST-1C (SEQ ID NO. 38) isoforms, ELISA plates were coated with either GST-1C or TRX-Exon14, blocked with BSA and a series of dilutions of each hybridoma supernatant containing mAb (or purified mAb) was incubated on the coated plates. Bound antibody was detected with anti-mouse alkaline phosphatase secondary antibody (Jackson ImmunoResearch) and the interaction developed with pNPP. […]

Assay [2] has as its target T2, recombinant human sFlt1-1 with C-terminal 6-histidine tag, expressed in CHO cells (human, UniProt P17948 27-656).
T2 construct: also called sFlt1_v1; sFlt1-i13
Briefly: capture ELISA (human anti-sFlt capture, mouse mAb detection). The source says:
To measure the concentration of total sFlt and its isoforms, sFlt1-1 and sFlt1-14, in biological fluid, a capture ELISA was developed. Using an anti-sFlt human antibody to capture total sFlt and mouse antibodies 10 ugR#9, EX14-1 or 1C-KLH-18 to detect bound sFlt, allows the efficient capture of sFlt in biological fluid without high background or interference (FIG. 4). […] The sFlt1-specific mAb, 1C-KLH-18, detects recombinant human sFlt1-1, but not sFlt1-14 (FIG. 4A,B). Conversely, the sFlt1-14-specific mAb, EX14-1, detects recombinant human sFlt1-14, but not sFlt1-1 (FIG. 4A,B). In addition, each mAb detects a protein in human amniotic fluid (known from the literature to contain both sFlt isoforms; FIG. 4C) and no background is observed in normal human sera, which should contain very low levels of sFlt isoforms (FIG. 4D).
A capture ELISA format was utilized to quantify the total sFlt, sFlt1-1 or sFlt1-14 concentration in solution. Briefly, high-binding ELISA plates (Costar) were coated with 1 ug/ml of an anti-sFlt human antibody overnight at 4° C. This anti-sFlt antibody was selected to provide a capture reagent that bound both sFlt1-1 and sFlt1-14 at an epitope in their homologous regions without interfering with the availability of the epitopes bound by the antibodies of the present disclosure. […]
Background: An ELISA detects its analyte on a solid surface through an enzyme-linked reagent.

Assay [3] addresses T3, recombinant human sFlt1-14 with C-terminal 6-histidine tag, expressed in CHO cells (human, UniProt P17948 27-705).
T3 construct: also called sFlt1_v2; sFlt1-e15a
Briefly: Octet QK (BLI), mAb captured on anti-murine biosensor, recombinant sFlt in solution. The protocol:
(§3) Affinity of antibodies was determined using an Octet QK (ForteBio) biomolecular interaction instrument. The Octet QK performs similarly to Biacore in the measurement of antibody affinity. The Octet QK uses biosensors to assess mass increases/decreases and determine rates of association and disassociation. Anti-murine or anti-human biosensors (ForteBio) were used to capture mAb in PBS (5 ug/ml) to saturation and unbound mAb was washed away. The coated biosensors were introduced into a solution containing recombinant human sFlt1-1 or sFlt1-14 at which time Kₒₙ was determined. The sensor was then introduced into a buffer solution and the Koff determined. Using Kₒₙ and Koff an affinity (KD) was calculated.

Assay [4] has as its target T4, GST-1C (glutathione S-transferase fused upstream of the sFlt1-1-specific C-terminal peptide) (human, not fully specified).
T4 construct: Bacterially expressed screening antigen coated on ELISA plates; not shown: N-terminal glutathione S-transferase (GST) fusion partner
T4 chain: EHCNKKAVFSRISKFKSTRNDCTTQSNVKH
Briefly: direct ELISA, plate coated with GST-1C, anti-mouse alkaline phosphatase and pNPP, OD405. The protocol: as §1, §2

Assay [5] concerns the target T3, recombinant human sFlt1-14 with …. Put plainly: western blot, reducing SDS-PAGE, nitrocellulose, probed with 1C-KLH-18, HRP anti-mouse secondary. Here is the method:
Specificity of mAbs to sFIt1-14 and SFIt1-1 was investigated by western blot analysis on human amniotic fluid (FIG. 3). […] As standards, human recombinant sFlt1-1 or sFlt1-14 was loaded in final quantities of 200, 100 and 50 ng. After electrophoresis and transfer to nitrocellulose membranes, blots were blocked in 5% BSA and probed with EX14-1 (FIG. 3A), 1C-KLH-18 (FIG. 3B) or a commercially available mouse anti-VEGFR1 mAb (FIG. 3C) that recognized a single protein in amniotic fluid at the expected molecular weight (˜115 kDa) that corresponds to recombinant human sFlt1-14 and sFlt1-1, respectively. After washing, an HRP-labeled anti-mouse secondary antibody was used to detect bound mAb, developed and visualized using a Kodak Gel Logic imaging system. In addition, both mouse mAbs specifically recognized their recombinant sFlt1 isoform standards by western blot.
In general terms: A western blot detects proteins with antibodies after separation by electrophoresis.

The target in assay [6] is T2, recombinant human sFlt1-1 with …. Briefly: Octet QK (BLI), mAb captured on anti-murine biosensor, recombinant sFlt in solution. The protocol: as §3
On the technique in general: In BLI a coated tip is dipped into the sample, and binding shifts an interference pattern.

In assay [7] the target is T4, GST-1C (glutathione S-transferase fused …). Briefly: ELISA of hybridoma cultures on coated GST-1C. Here is the method:
as §1, §2

T2 sequence (P17948 other isoform, or with tags, fused parts or gaps): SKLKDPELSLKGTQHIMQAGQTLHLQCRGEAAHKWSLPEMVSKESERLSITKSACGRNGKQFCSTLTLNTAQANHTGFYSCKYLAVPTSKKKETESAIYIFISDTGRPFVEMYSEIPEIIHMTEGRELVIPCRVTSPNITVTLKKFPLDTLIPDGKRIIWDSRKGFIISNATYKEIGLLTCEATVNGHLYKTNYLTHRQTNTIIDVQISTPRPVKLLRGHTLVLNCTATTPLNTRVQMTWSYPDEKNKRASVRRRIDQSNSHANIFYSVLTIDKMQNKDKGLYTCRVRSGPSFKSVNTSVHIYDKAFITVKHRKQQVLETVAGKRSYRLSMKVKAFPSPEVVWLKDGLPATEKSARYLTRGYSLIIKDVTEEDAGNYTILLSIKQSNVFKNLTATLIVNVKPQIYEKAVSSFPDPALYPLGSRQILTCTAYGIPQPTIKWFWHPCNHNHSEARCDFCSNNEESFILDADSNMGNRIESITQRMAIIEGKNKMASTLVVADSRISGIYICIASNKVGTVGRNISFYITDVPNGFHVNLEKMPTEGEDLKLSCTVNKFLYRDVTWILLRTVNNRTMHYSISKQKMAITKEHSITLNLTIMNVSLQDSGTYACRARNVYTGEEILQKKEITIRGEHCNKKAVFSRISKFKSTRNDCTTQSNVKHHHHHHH
T3 sequence (P17948 other isoform, or with tags, fused parts or gaps): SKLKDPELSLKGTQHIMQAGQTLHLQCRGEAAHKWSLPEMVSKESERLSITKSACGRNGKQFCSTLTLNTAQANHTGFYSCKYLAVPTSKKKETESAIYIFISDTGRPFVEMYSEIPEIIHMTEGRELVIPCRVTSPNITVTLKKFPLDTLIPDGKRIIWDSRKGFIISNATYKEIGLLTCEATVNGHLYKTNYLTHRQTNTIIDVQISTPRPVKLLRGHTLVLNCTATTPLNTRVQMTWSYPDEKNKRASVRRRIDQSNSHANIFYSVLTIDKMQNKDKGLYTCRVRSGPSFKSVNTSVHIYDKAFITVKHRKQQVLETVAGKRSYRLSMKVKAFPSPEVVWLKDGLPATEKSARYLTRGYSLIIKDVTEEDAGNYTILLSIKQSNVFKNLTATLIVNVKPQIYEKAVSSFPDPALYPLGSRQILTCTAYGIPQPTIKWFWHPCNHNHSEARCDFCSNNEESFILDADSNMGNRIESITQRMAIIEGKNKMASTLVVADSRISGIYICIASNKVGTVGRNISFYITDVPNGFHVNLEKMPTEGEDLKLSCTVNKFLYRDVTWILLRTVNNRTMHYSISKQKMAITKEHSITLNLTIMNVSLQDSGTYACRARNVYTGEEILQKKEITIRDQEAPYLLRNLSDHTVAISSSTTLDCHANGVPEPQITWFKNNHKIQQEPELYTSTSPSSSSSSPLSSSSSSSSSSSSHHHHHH

B1: mouse mAb EX14-1 (antibody, V domains shown)
VH: QIQLVQSGPELKKPGETVKISCTTSGYIFTTSGMSWVKQAPGKGLQWMGWINTYSGEPTYADDFKGRFAFSLETSASTAYLHINDLKNEDTATYFCARSRNNYEGFAYWGQGTLVTVSV
VL: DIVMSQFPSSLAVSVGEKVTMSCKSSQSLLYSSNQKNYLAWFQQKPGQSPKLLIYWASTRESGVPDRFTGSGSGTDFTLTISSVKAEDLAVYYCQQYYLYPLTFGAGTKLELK
notes: Murine hybridoma mAb with a kappa light chain (VK); also called sFlt1-14-specific mAb
Consider B1, for which the results for the binding result in assay [1], in assay [2] and in assay [4] were “binds”, “no binding” and “no binding”, respectively. In addition, the Kd in assay [3] amounted to 39.5 nM.

B2: mouse mAb 1C-KLH-18 (antibody, V domains shown)
VH: EVQLQQSGAELVRPGASVKLSCTASGVNIKDDYMNWVNQRPEQGLEWIGWIDPENGDTEYASKFQGKATITADTSSNTAYLQLSSLTSEDTAVYYCAAGYDYFPFVYWGQGTLVAVSA
VL: DVLMSQTPLSLPVSLGDQASISCRSSQNIVHSNGNTYLEWYLQKPGQSPKLLIHKVSNRFSGVPDRFSGSGSGTDFTLKISRVEAEDLGVYYCFQGSHVPFTFGSGTKLEKK
notes: Murine hybridoma mAb with a kappa light chain (VK); It was used as hybridoma supernatant or Protein A purified mAb; also called sFlt1-specific mAb; sFlt1-1-specific mAb
With B2, the binding result is recorded as “no binding (tested: 200 ng per lane)” in assay [5] and “binds” in assay [7]. Also, the equilibrium dissociation constant (Kd) in assay [6] is 4.3 nM.

The Kd is the equilibrium constant for the complex coming apart.
